Laboratory results from the supplement of paper PMC9732359.
± gives the uncertainty stated by the source.

Assay: protein stability index of a GFP-peptide fusion (yeast GPS) (PSI 1-4); higher = more stable; sorted into four equal gates, so the index is relative within each strain
Summary of the method: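 For each peptide, the protein stability index sums the read frequency in every gate after multiplying it by the gate number. Read frequencies came from plasmids that were PCR-amplified from each gate and Illumina-sequenced, with reads assigned to strains by barcodes. The gates were four equal bins of GFP/Cherry fluorescence ratio applied to mid-log yeast in leucine-free medium carrying a pooled library of tiled 17-residue yeast protein peptides fused downstream of GFP on a Cherry-expressing plasmid.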

Sequence	protein stability index (doa10∆)	protein stability index (pdr5∆)	protein stability index (san1∆)	protein stability index (ubr1∆)
KKNDMNTSAKNKNGENK [SIR4]	2.59 ± 0.06	2.69 ± 0.061	3.03 ± 0.054	3.12 ± 0.066
EQTEGEPKKKRGFLGLF [SRP68]	3.1 ± 0.096	3.26 ± 0.11	2.9 ± 0.064	2.76 ± 0.066
YGRQELADDLITKMLAS [RPN2]		2.92 ± 0.29		3 ± 0.079
IAGINKKKGLDENTSGK [PRP28]	3.48 ± 0.067	3.47 ± 0.089	3.44 ± 0.056	3.6 ± 0.075
KEYISRLWHTLKYYQDL [SNF5]	1.47 ± 0.068	1.55 ± 0.06	1.42 ± 0.1	1.58 ± 0.054
NFKMLVLLATWNLEKWR [IRR1]	1.32 ± 0.053	1.3 ± 0.071	1.5 ± 0.12	1.56 ± 0.038
ITYTPVRHGRAGATTSR [RPS15]	2.28 ± 0.11	2.24 ± 0.081	2.58 ± 0.088	2.92 ± 0.099
PAHTVIIKGTDVYSPEK [BRR2]	3.02 ± 0.055	3.19 ± 0.077	2.54 ± 0.072	2.68 ± 0.055
KLLQLFLTPMDSIDLAP [YML103C/NUP188]	1.9 ± 0.071	1.54 ± 0.062	1.76 ± 0.092	1.36 ± 0.038
PYLPKHYLVLLVAKFLY [YJR042W/NUP85]	1.3 ± 0.084	1.28 ± 0.06	1.16 ± 0.15	1.21 ± 0.052
APHDSEATLLTNSNNGS [SNF5]	3.05 ± 0.065	2.85 ± 0.061	2.91 ± 0.045	2.97 ± 0.043
KPPISDSVFSFGPKKEN [YLR335W/NUP2]	2.82 ± 0.065	2.81 ± 0.057	2.75 ± 0.046	2.94 ± 0.039
NTKEIAVDLEHHDYRSY [RRP6]	2.93 ± 0.06	3.07 ± 0.048	3.15 ± 0.056	3.054 ± 0.03
SLEQRQEVTKFAKANIG [RPN4]	2.82 ± 0.15	2.98 ± 0.24	2.83 ± 0.11	
LHVEQLSGGQKTVCAIA [SMC3]	1.58 ± 0.15	2.08 ± 0.24	2.09 ± 0.15	1.82 ± 0.067
EVGDVCINELDNWNAPL [RPO31]	3.21 ± 0.086	3.06 ± 0.074	3.21 ± 0.052	3.25 ± 0.053
TKTNVDNNSKAEASFTF [YLR335W/NUP2]	3.05 ± 0.063	3.24 ± 0.067	3.07 ± 0.045	3.13 ± 0.046
KINRPPVSVSRIARALK [RPL18A]		2.06 ± 0.1	1.97 ± 0.13	2.66 ± 0.18
KLLKSLLLNYLELIGVL [MED7]	1.86 ± 0.052	1.56 ± 0.052	1.14 ± 0.098	1.33 ± 0.058
AGAAGAAAGGDAAEEEK [RPP2B]				1.27 ± 0.27
VDFDGLDIKRVGSENVE [SNF12]	3.3 ± 0.19	3.32 ± 0.14	3.49 ± 0.24	3.35 ± 0.1
VDIYSLPLISTDVLEIS [YMR129W/POM152]	2.06 ± 0.052	2.58 ± 0.049	2.43 ± 0.045	2.44 ± 0.044
LPNETINDRNDRAIRKT [DIS3]				2.29 ± 0.11
TSAGIMDHEEARRKHVS [RPS22A]	2.87 ± 0.3	2.73 ± 0.23	2.87 ± 0.24	2.62 ± 0.15
KKEATKPAFSFGINTNT [YLR335W/NUP2]	2.99 ± 0.062	3.02 ± 0.086	3.26 ± 0.038	3.35 ± 0.056
NQIADLSGKFSTIPTRE [ROX3]	2.98 ± 0.091	2.96 ± 0.093	2.81 ± 0.071	3.23 ± 0.07
QVASIIESFVELGVSIY [NUT2]	2.77 ± 0.13	2.98 ± 0.17	2.2 ± 0.13	1.76 ± 0.045

Sequence	protein stability index (doa10∆)	protein stability index (pdr5∆)	protein stability index (san1∆)	protein stability index (ubr1∆)
EVDEKPTETYSDVGGLD [RPT5]	3.35 ± 0.082	3.3 ± 0.07	3.16 ± 0.058	3.23 ± 0.059
LDPISLILIPGETMWVP [RPN13]	2.28 ± 0.095	2.45 ± 0.049	2.95 ± 0.093	3.4 ± 0.12
KGPAIDELSSKELVECH [NNF1]	3.04 ± 0.055	3.13 ± 0.068	2.78 ± 0.077	2.82 ± 0.047
QKVQGESHIDSRNNTLN [SIR4]	3.02 ± 0.057	3.1 ± 0.05	3.08 ± 0.057	3.01 ± 0.043
VDGEAVGDEFKGYVFKI [RPS6A]		3.79 ± 0.18		
NNESNKNNNGDEKNKNN [MED2]	3.21 ± 0.074	3.39 ± 0.066	3.33 ± 0.038	3.31 ± 0.051
ISVGLYDTTPLLDTNSL [SKI6]	2.57 ± 0.074	2.88 ± 0.13	2.48 ± 0.099	2.51 ± 0.14
AAAVSGNNASDEPSRKK [SSN3]	2.68 ± 0.13	3.05 ± 0.11	2.78 ± 0.14	3.05 ± 0.11
MTVAHLIECLLSKVAAL [RPB2]	1.97 ± 0.084	2.01 ± 0.074	1.84 ± 0.1	1.54 ± 0.054
NSILSVRDPWSIDFRTY [SRB2]	2.71 ± 0.1	2.68 ± 0.14	2.48 ± 0.22	2.98 ± 0.1
NISHLLEIASSIDCLLI [SWI1]	2.21 ± 0.068	2.16 ± 0.046	2.29 ± 0.078	2.04 ± 0.035
PTLPTNHNKTKLLKSLK [PRP8]	2.33 ± 0.07	1.6 ± 0.056	1.82 ± 0.076	2.41 ± 0.057
NEPAARLGSEADAKAFL [FAS2]	3.45 ± 0.065	3.42 ± 0.058	3.35 ± 0.042	3.31 ± 0.077
HNGSHRTVAGFSNVELP [ARP7]	3.1 ± 0.071	2.83 ± 0.07	2.72 ± 0.085	2.8 ± 0.048
DLSADKPTSPFIDSICK [SRB8]	2.12 ± 0.034	1.88 ± 0.039	1.76 ± 0.048	1.93 ± 0.032
IQISKLHYTPIEDLWQF [RPC82]	2.26 ± 0.12	2.27 ± 0.13	2.09 ± 0.12	2.36 ± 0.15
KSLPLLITVMEKSPDPT [YCS4]	1.91 ± 0.045	1.87 ± 0.043	1.92 ± 0.062	1.97 ± 0.034
LSIWIKNYPEYFLKVTF [IRR1]	1.88 ± 0.056	1.77 ± 0.037	2.2 ± 0.076	1.8 ± 0.047
QMSLEANVVDITNDWEQ [YJR042W/NUP85]	2.65 ± 0.077	2.77 ± 0.064	2.92 ± 0.058	2.87 ± 0.058
SFALPFEEDEKNSDVWF [RPN8]	3.28 ± 0.08	3.23 ± 0.072	3.14 ± 0.051	3.26 ± 0.06
KSNVIDSMLFVFGFRAN [SMC4]	2.26 ± 0.049	2.39 ± 0.054	2.16 ± 0.078	2.68 ± 0.059
NLQREIDQAHVSEITKL [RPN14]	2.61 ± 0.044	2.81 ± 0.058	2.75 ± 0.054	2.69 ± 0.05
YSWLLFEASCMEGQKLD [YJR042W/NUP85]	1.09 ± 0.094	1.36 ± 0.09	1.39 ± 0.2	1.17 ± 0.064
KPSKPFNVDDVLKFTFT [MED8]	3.1 ± 0.061	2.83 ± 0.051	3.03 ± 0.034	2.74 ± 0.039
GQMAPIGTGAFDVMIDE [RPO21]	2.29 ± 0.12	2.3 ± 0.13	2.37 ± 0.12	2.54 ± 0.057
KAKAQAQAQAQAQAQVY [PGD1]	2.96 ± 0.11	3.26 ± 0.088	3.04 ± 0.083	3 ± 0.066
